This is an account of results in doi:10.1101/2022.12.02.518935.

This assay deals with Biotinylated AF546-labeled BtuF (BtuF*), construct of the smFRET-Q experiments (E. coli). In words: smFRET-Q.

Sequence of Wild type BtuCD reconstituted in nanodiscs (P06609 whole entry): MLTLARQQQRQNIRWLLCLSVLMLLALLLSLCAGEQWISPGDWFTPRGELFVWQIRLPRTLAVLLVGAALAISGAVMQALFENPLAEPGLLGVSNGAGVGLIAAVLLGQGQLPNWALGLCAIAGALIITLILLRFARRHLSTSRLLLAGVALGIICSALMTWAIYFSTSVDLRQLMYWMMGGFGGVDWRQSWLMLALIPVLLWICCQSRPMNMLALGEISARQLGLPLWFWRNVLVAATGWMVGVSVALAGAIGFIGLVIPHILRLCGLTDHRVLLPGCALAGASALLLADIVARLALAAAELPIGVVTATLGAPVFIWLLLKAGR
Sequence of Wild type BtuCD reconstituted in nanodiscs (P06611 whole entry): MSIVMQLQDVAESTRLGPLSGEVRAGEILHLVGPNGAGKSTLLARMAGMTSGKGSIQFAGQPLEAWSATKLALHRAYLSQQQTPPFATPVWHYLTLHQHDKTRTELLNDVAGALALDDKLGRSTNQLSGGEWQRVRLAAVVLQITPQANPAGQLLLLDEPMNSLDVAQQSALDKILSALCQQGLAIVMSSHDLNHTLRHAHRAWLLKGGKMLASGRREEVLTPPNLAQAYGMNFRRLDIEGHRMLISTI

“Wild type BtuCD reconstituted in nanodiscs (from UniProt P06609 1-326; P06611 1-249) (complex)” yielded an occupancy time of the H state (locked BtuCD-F* complex) with 0.5 mM Mg-ATP of 1 s.
